Test results taken from patent publication US10227617B2, “Sequestration of carbon dioxide with hydrogen to useful products” (UNIVERSITY OF GEORGIA RESEARCH FOUNDATION, INC., priority 2012, dated 2019).
≈ marks a conversion by molar mass, not a printed value.

What was measured:
[1] = 70° C and 1 atm; cited from earlier work
[2] = tested on: CC(C)(COP(=O)(O)OP(=O)(O)OC[C@H]1O[C@@H](n2cnc3c(N)ncnc32)[C@H](O)[C@@H]1OP(=O)(O)O)[C@@H](O)C(=O)NCCC(=O)NCCSC(=O)CCCO; experiment: 4-hydroxybutyryl-CoA dehydratase (Msed_1321), coupled spectrophotometric assay; assay type: biochemical, Metallosphaera sedula; details: other: Msed_1321, 70° C.
Description: A polypeptide having 4-hydroxybutyryl-CoA dehydratase activity means the polypeptide catalyzes the conversion of 4-hydroxybutyryl-CoA to crotonyl-CoA. The 4-hydroxybutyryl-CoA dehydratase activity of a polypeptide may be determined by routine methods known in the art. An example of such a polypeptide includes an amino acid sequence encoded by coding sequence Msed_1321 of Genbank accession NC_009440 and disclosed at SEQ ID NO:15.
Heterologous expression of M. sedula genes in E. coli. Msed_0406, Msed_1321, Msed_0399, and Msed_0656 were amplified from genomic DNA using primers from IDT Technologies (Coralville, Iowa). Msed_0406 was cloned into pET46-Ek/LIC with an N-terminal His6 tag, as described in Example 1. Msed_1321 was cloned with an N-terminal His6 tag into a modified pETA vector, into which the anaerobic hya promoter from E. coli had been inserted to allow for anaerobically-regulated expression (Sun et al., 2010. PLoS One 5:e10526). Msed_0399 was cloned into pET21b without a His-tag, and Msed_0656 was cloned into pCDF-Ek/LIC with an N-terminal His6 tag. All four constructs were individually cloned into NovaBlue GigaSingles E. coli competent cells and selected by growth on LB-agar supplemented with antibiotic. Sequences were confirmed by Eton Biosciences, Inc. (Durham, N.C.). Next, the plasmids were transformed into E. coli Rosetta 2 (DE3) cells for protein expression. Rosetta strains containing pET46-0406, pET21b-0399, and pCDF-0656 were grown and expressed aerobically at 37° C. for 16 h in Studier's auto-inducing medium ZYM-5052 (Studier, 2005. Protein Expression and Purification 41:207-234). Rosetta cells containing pETA-1321 plasmid were grown in a 2 L Applikon bioreactor (37° C., 800 rpm, pH 6.7, 0.5 slpm air) in Studier's non-inducing medium ZYM-505 with 0.5 mM FeCl3. […]
4-hydroxybutyryl-CoA dehydratase (Msed_1321). […] Enzyme activity was measured […] in a coupled spectrophotometric assay at 70° C. […]

[3] = tested on: O=C(O)CCCO; experiment: acyl-CoA ligase activity of mutant Msed_1353-G424, discontinuous DTNB assay; assay type: biochemical, Metallosphaera sedula; details: other: Msed_1353-G424, 75° C., pH 7.9
Description: In one embodiment, an example of a polypeptide having 4-hydroxybutyrate:CoA ligase activity is an amino acid sequence encoded by coding sequence Msed_1353 of Genbank accession NC_009440 and disclosed at SEQ ID NO:18, provided that the amino acid at residue 424 is not the tryptophan present in a wild type Msed_1353. In one embodiment, the amino acid at residue 424 is alanine, valine, leucine, isoleucine, or glycine. In one embodiment, the amino acid at residue 424 is alanine, valine, leucine, glycine. In one embodiment, the amino acid at residue 424 is glycine. The amino acid sequence disclosed at SEQ ID NO:18 includes the substitution of glycine for tryptophan. Another example is a polypeptide having structural similarity to the amino acid sequence SEQ ID NO:18, provided the amino acid at residue 424 is not tryptophan.
Two assays were used to measure ligase activity, one spectrophotometric and one using high-performance liquid chromatography (HPLC). A discontinuous assay was used to measure substrate-dependent disappearance of CoA at 75° C. The reaction mixture (600 μl) contained 100 mM MOPS-KOH (pH 7.9), 5 mM MgCl2, 2.5 mM ATP, 0.15 mM CoA, and purified enzyme. At each time point, 80 μl of reaction mixture was added to 80 μl cold 5,5′-dithiobis-(2-nitrobenzoic acid) (DTNB). A time point (0 min) was taken before heating. The reaction mixture was incubated for 2 min at 75° C., followed by addition of substrate. Additional time points were taken at 30, 60, 90, 120, and 180 sec after addition of substrate. Absorbance was measured at 412 nm to determine free CoA concentration, based on the concentration of 2-nitro-5-thiobenzoate dianion (NTB^2−) (ε412=14,150 M^−1 cm^−1) (Hawkins et al., 2011, ACS Catal. 1, 1043-1050, Riddles et al., 1983, Methods in Enzymology 91, 49-60). Enzymes were kinetically characterized by varying the concentration of the […] substrate from 0.05 mM to 12 mM, while the other substrate concentrations were held constant. Measurements for specific activity were taken under saturating substrate concentrations (10 mM). Formation of the CoA ester was also confirmed using HPLC (Waters). The reaction mixture (0.15 ml) contained 100 mM potassium phosphate (pH 7.9), 10 mM MgCl2, 2 mM ATP, 0.5 mM CoA, 10 mM substrate, and purified enzyme. The reaction was incubated for 3 min at 75° C., quenched with 15 μl 1M HCl, filtered with a 10 kDa spin column (Amicon YM-10) to remove the protein, and loaded onto a reversed-phase C18 silica-based column (Shodex C18-4E, 4.6×250 mm). The mobile phase was 50 mM sodium phosphate buffer (pH 6.7) with 2% methanol.
M. sedula genes encoding acyl-CoA synthetases were amplified from genomic DNA using primers synthesized by Integrated DNA Technologies (Coralville, Iowa). […]

[4] = substrate: CCCCC(=O)O; experiment: purified protein, by the assay type; details: other: Msed_0406, 75° C., pH 7.9; 75.0 °C
[5] = substrate: CC(=O)O; experiment: purified protein, by the assay type; details: other: Msed_0406, 75° C., pH 7.9; 75.0 °C
[6] = substrate: CCC(=O)O; experiment: purified protein, by the assay type; details: other: Msed_0406, 75° C., pH 7.9; 75.0 °C
[7] = substrate: O=C(O)CCO; experiment: purified protein, by the assay type; details: other: Msed_0406, 75° C., pH 7.9; 75.0 °C
Method: (§1) Two assays were used to measure ligase activity, one spectrophotometric and one using high-performance liquid chromatography (HPLC). A discontinuous assay was used to measure substrate-dependent disappearance of CoA at 75° C. The reaction mixture (600 μl) contained 100 mM MOPS-KOH (pH 7.9), 5 mM MgCl2, 2.5 mM ATP, 0.15 mM CoA, and purified enzyme. At each time point, 80 μl of reaction mixture was added to 80 μl cold 5,5′-dithiobis-(2-nitrobenzoic acid) (DTNB). A time point (0 min) was taken before heating. The reaction mixture was incubated for 2 min at 75° C., followed by addition of substrate. Additional time points were taken at 30, 60, 90, 120, and 180 sec after addition of substrate. Absorbance was measured at 412 nm to determine free CoA concentration, based on the concentration of 2-nitro-5-thiobenzoate dianion (NTB^2−) (ε412=14,150 M^−1 cm^−1) (Hawkins et al., 2011, ACS Catal. 1, 1043-1050, Riddles et al., 1983, Methods in Enzymology 91, 49-60). Enzymes were kinetically characterized by varying the concentration of the acyl-CoA substrate from 0.05 mM to 12 mM, while the other substrate concentrations were held constant. Measurements for specific activity were taken under saturating substrate concentrations (10 mM). Formation of the CoA ester was also confirmed using HPLC (Waters). The reaction mixture (0.15 ml) contained 100 mM potassium phosphate (pH 7.9), 10 mM MgCl2, 2 mM ATP, 0.5 mM CoA, 10 mM substrate, and purified enzyme. The reaction was incubated for 3 min at 75° C., quenched with 15 μl 1M HCl, filtered with a 10 kDa spin column (Amicon YM-10) to remove the protein, and loaded onto a reversed-phase C18 silica-based column (Shodex C18-4E, 4.6×250 mm). The mobile phase was 50 mM sodium phosphate buffer (pH 6.7) with 2% methanol.

[8] = substrate: O=C(O)CCCO; experiment: purified protein, by the assay type
Method: as §1

[9] = substrate: CCCC(=O)O; experiment: purified protein, by the assay type; details: other: Msed_0406, 75° C., pH 7.9; 75.0 °C
Method: as §1

[10] = CoA synthetase assay (DTNB), substrate propionate; assay type: biochemical; details: saturating substrate concentrations
Method: Two assays were used to measure ligase activity, one spectrophotometric and one using high-performance liquid chromatography (HPLC). A discontinuous assay was used to measure substrate-dependent disappearance of CoA at 75° C. The reaction mixture (600 μl) contained 100 mM MOPS-KOH (pH 7.9), 5 mM MgCl2, 2.5 mM ATP, 0.15 mM CoA, and purified enzyme. At each time point, 80 μl of reaction mixture was added to 80 μl cold 5,5′-dithiobis-(2-nitrobenzoic acid) (DTNB). A time point (0 min) was taken before heating. The reaction mixture was incubated for 2 min at 75° C., followed by addition of substrate. Additional time points were taken at 30, 60, 90, 120, and 180 sec after addition of substrate. Absorbance was measured at 412 nm to determine free CoA concentration, based on the concentration of 2-nitro-5-thiobenzoate dianion (NTB^2−) (ε412=14,150 M^−1 cm^−1) (Hawkins et al., 2011, ACS Catal. 1, 1043-1050, Riddles et al., 1983, Methods in Enzymology 91, 49-60). Enzymes were kinetically characterized by varying the concentration of the acyl-CoA substrate from 0.05 mM to 12 mM, while the other substrate concentrations were held constant. Measurements for specific activity were taken under saturating substrate concentrations (10 mM). Formation of the CoA ester was also confirmed using HPLC (Waters). […]

[11] = 4-hydroxybutyrate-CoA synthetase assay (DTNB; HPLC confirmation); assay type: biochemical
Method: A time point (0 min) was taken before heating.
The soluble, heat-treated lysate was loaded onto the column with binding buffer (50 mM sodium phosphate, 300 mM NaCl, 20 mM imidazole, pH 7.4) and the his-tagged enzyme removed with elution buffer (50 mM sodium phosphate, 300 mM NaCl, 500 mM imidazole, pH 7.4).

[12] = other: Msed_0406, 75° C., pH 7.9, 75.0 °C

## [HH] [hydrogen]
[1]
  solubility: 600 µM (≈ 1.21 µg/mL)

## Metallosphaera sedula 4-hydroxybutyryl-CoA dehydratase Msed_1321, SEQ ID NO:15, recombinant (Metallosphaera sedula DSM 5348)
[2]
  Km: 150 µM
  Vmax: 2.2 µmol/min/mg
  kcat: 2.1 s⁻¹

## O=O [oxygen]
[1]
  solubility: 600 µM (≈ 19.2 µg/mL)

## Metallosphaera sedula acetate/propionate synthetase Msed_1353 variant Msed_1353-G424 (Trp424 to Gly, W424G), SEQ ID NO:18 (Metallosphaera sedula DSM 5348; W424G)
[3]
  Km: 1130 µM
  Vmax: 2.3 µmol/min/mg
  kcat: 2.5 s⁻¹
  kcat/Km: 2180 M⁻¹ s⁻¹

B1: Metallosphaera sedula acyl-CoA synthetase (4-hydroxybutyrate:CoA ligase) Msed_0406, SEQ ID NO:14, recombinant (Metallosphaera sedula DSM 5348) (protein)
chain: MVTVQDFFRKFIEFQNSPNEKSLQEIVKLVGQLDLRRFNWVRDVFEDIHVKERGSKTALIWRDINTGEEAKLSYHELSLMSNRVLSTLRKHGLKKGDVVYLMTKVHPMHWAVFLAVIKGGFVMVPSATNLTVAEMKYRFSDLKPSAIISDSLRASVMEEALGSLKVEKFLIDGKRETWNSLEDESSNAEPEDTRGEDVIINYFTSGTTGMPKRVIHTAVSYPVGSITTASIVGVRESDLHLNLSATGWAKFAWSSFFSPLLVGATVVGINYEGKLDTRRYLGEVENLGVTSFCAPPTAWRQFITLDLDQFRFERLRSVVSAGEPLNPEVIKIWKDKFNLTIRDFYGQTETTAMVGNFPFLKVKPGSMGKPHPLYDIRLLDDEGKEITKPYEVGHITVKLNPRPIGLFLGYSDEKKNMESFREGYYYTGDKAYFDEEGYFYFVGRGDDVIKTSDYRVGPFEVESALLEHPAVAEAAVVGVPDTVRWQLVKAYIVLKKGYMPSKELAEEIREKMKTLLSPYKVPRIIEFVDELPKTISGKIRRVELRKREEEKRKKGEVGQNEYVF
[4]
  Km: 740 µM
  Vmax: 5.2 µmol/min/mg
  kcat: 5.6 s⁻¹
  kcat/Km: 7500 M⁻¹ s⁻¹
[5]
  Km: 2030 µM
  Vmax: 6 µmol/min/mg
  kcat: 6.4 s⁻¹
  kcat/Km: 3200 M⁻¹ s⁻¹
[6]
  Km: 380 µM
  Vmax: 15.1 µmol/min/mg
  kcat: 16.2 s⁻¹
  kcat/Km: 43000 M⁻¹ s⁻¹
[7]
  Km: 810 µM
  Vmax: 2.4 µmol/min/mg
  kcat: 2.6 s⁻¹
  kcat/Km: 3200 M⁻¹ s⁻¹
[8]; [12]
  Km: 2000 µM
  Vmax: 1.7 µmol/min/mg
  kcat: 1.8 s⁻¹
  kcat/Km: 910 M⁻¹ s⁻¹
[8]; other: Msed_0406, text
  Km: 1900 µM
[9]
  Km: 320 µM
  Vmax: 7.9 µmol/min/mg
  kcat: 8.4 s⁻¹
  kcat/Km: 26000 M⁻¹ s⁻¹
[10]
  specific activity: 15.1 µmol/min/mg
[11]; 4HB, saturating substrate concentrations
  specific activity: 1.8 µmol/min/mg
[11]; reversed-phase HPLC
  production of 4HB-CoA from 4HB and CoA: confirmed
[11]; substrate 4HB
  rate of ligation of CoA to 4HB: 1.69 µmol·min/mg
